In patent US9145555B2, “Integrated—ligand-responsive microRNAs” (California Institute of Technology, priority 2009, dated 2015):

Key:
[1] = system: xanthine aptamer; conditions: cited from earlier work
[2] = system: transcript encoding the green fluorescent protein (GFP) in HEK 293 cells stably expressing GFP; assay: Cell culture assay for miRNA activity (GFP silencing, transient transfection, flow cytometry); format: cell-based, human; conditions: for GFP silencing: single copy, absence of ligand; for response of GFP levels to theophylline: transient transfection with varying theophylline concentrations; for response of GFP levels to tetracycline: 100 μM tetracycline; for response of GFP levels to hypoxanthine: 5 mM hypoxanthine
Source text: To examine the relationship between bulge size in the basal segments and gene silencing, we developed a general cell culture assay for miRNA activity (FIG. 1D). miRNAs designed to target a transcript encoding the green fluorescent protein (GFP) were inserted into the 3′ untranslated region (UTR) of a constitutively-expressed transcript encoding the fluorescent protein DsRed-Express. Plasmid DNA encoding the DsRed-Express construct was transfected into HEK 293 cells stably expressing GFP. The level of miRNA-mediated gene silencing was determined by flow cytometry analysis, where DsRed-Express levels were used to distinguish between transfected and untransfected cells. Using the cell culture assay, miRNAs with the same bulges as in the in vitro experiments were tested for silencing efficiency. […] Therefore, proper Drosha processing and gene silencing correlate with the size of the bulge in the miRNA basal segments.
293 and Flp-In-293 cells were maintained in DMEM supplemented with 10% FBS at 37° C. in a 5% CO2—humidified incubator. Transient transfections were conducted with Fugene 6 (Roche) according to the manufacturer's instructions one day after seeding. Immediately prior to transfection, the media was supplemented with the appropriate ligand at the specified concentration. Ligand concentrations were selected to maximize the regulatory response without severely compromising cell viability over the course of the transient assays. The media was replaced two days post-transfection. Three days post-transfection, the cells were trypsinized and subjected to flow cytometry analysis on a Cell Lab Quanta SC MPL (Beckman Coulter) and the resulting data was analyzed using the Flowjo software (Tree Star). Cells were initially gated for viability by electronic volume and side scatter. GFP and DsRed fluorescence of viable cells were measured through a 525 nm and […] band pass filter, respectively, after excitation with a 488 nm laser. Moderate to high DsRed levels served as a transfection control to gate between transfected and untransfected cells. Transfected cells could be distinguished from untransfected cells with this method even when four miRNAs were present in the 3′ UTR of the DsRed-Express encoding transcript (data not shown). GFP levels were calculated as the median fluorescence of the transfected population divided by that of the untransfected population (Beisel et al., 2008). This normalization approach corrected for the bias from pleiotropic effects associated with each small molecule. All ratios were normalized such that the value for DsRed-Express lacking a miRNA under the same conditions was set to 100%.

[3] = system: endogenous La gene; assay: La transcript levels by qRT-PCR in stable 293-Flp-In cell lines; format: cell-based, human; conditions: four copies; for silencing of La transcript: 112 nt spacer, stable cell lines
Source text: Most of the synthetic ligand-responsive RNA-based regulatory systems are encoded in the target transcript, providing regulation in cis (Suess and Weigand, 2008). However, the regulation of endogenous genes through cis regulatory strategies is currently limiting due to the lack of directed recombination technologies. To test whether ligand-responsive miRNAs provide a trans regulatory strategy for the effective regulation of endogenous genes, we incorporated a mature miRNA sequence against the endogenous La gene into wt (La1) and th1 (La2) (FIG. 9). Four copies of each miRNA separated by the longest spacer sequence were cloned into the 3′ UTR of the transcript encoding DsRed-Express, and the resulting constructs were stably integrated into a single site in 293-Flp-In cells.
(§1) Stable transfection of 293-Flp-In cell lines was performed using the Flp-In recombinase system (Invitrogen) according to the manufacturer's instructions to generate isogenic stable cell lines. Integrants were selected using 200 μg/ml hygromycin B (Invitrogen), whereas stable cell lines were maintained in 50 μg/ml hygromycin B. The procedure described above for the fluorescence expression analysis of transiently transfected cell populations was used to analyze the stable cell lines with notable exceptions. Normalization of flow cytometry data to untransfected cells was not performed as all cells express the integrated construct, and all data was normalized to cells lacking a miRNA and grown in the absence of theophylline. Normalization to cells grown under the same conditions was not performed since theophylline differentially affected the two negative controls: no miRNA and a self-targeting miRNA lacking the theophylline aptamer.
Transcript levels were measured by qRT-PCR under either transient or stable transfection conditions. […] Samples were prepared in quadruplicate using the iQ SYBR green supermix and data were analyzed using the iCycler iQ software. […] The reported sample error was calculated using the following expression: […]

[4] = system: transcript encoding DsRed-Express; assay: DsRed-Express levels in stable cell lines with La-targeting miRNAs (flow cytometry); format: cell-based, human; conditions: four copies; for response of DsRed levels to theophylline: 1.5 mM theophylline; for DsRed-Express down-regulation in cis: stable cell lines
Source text: To assess the capacity for ligand-responsive miRNAs to regulate gene expression in cis, we measured expression levels for the transcripts harboring the ligand-responsive miRNAs targeting GFP and La. DsRed-Express levels were quantified by flow cytometry under similar conditions as the trans-targeted gene silencing experiments. […] Transcript analysis confirmed that the predominant regulatory mechanism of ligand-responsive miRNAs in cis is mRNA destabilization (FIG. 10).
as §1

O=c1[nH]cnc2nc[nH]c12 [Hypoxanthine]
affinity for the xanthine aptamer relative to xanthine [1]: comparable affinity

Cn1c(=O)c2c(ncn2C)n(C)c1=O [caffeine, reference compound]
response of GFP silencing to caffeine ([2]; 1 mM caffeine, miRNAs th1 and wt): insensitive

B1: wt: SEQ ID NO. 18; GFP-targeting miRNA with basal segments similar to the natural miRNA miR-30a, control (nucleic acid)
chain: TCTAGAGTTTGACAGTGAGCGAGCACAAGCTGGAGTACAACTATAGTGAAGCCACAGATGTATAGTTGTACTCCAGCTTGTGCCTGCCTACTGCCTCGGACTGAATTCATAGGGCC
GFP silencing [2]: silence GFP with comparable strength | response of GFP levels to theophylline [2]: insensitive to theophylline

B2: th2: SEQ ID NO. 25; th1 altered to target a different location in the GFP transcript (nucleic acid)
chain: TCTAGAACGGGTCCTGATACCAGCGTGAGCGCCAAGAAGATGGTGCGCTCCTGGAGTGAAGCCACAGATGTCCAGGAGCGCACCATCTTCTTGTCGCCTACGCCCTTGGCAGCAGGGCCC
modifications: expressed or natural sequence
notes: 25; th1 altered to target a different location in the GFP transcript
GFP silencing [2]: preserved silencing | response of GFP levels to theophylline [2]: preserved silencing and the theophylline response

B3: th1′: SEQ ID NO. 24; theophylline-responsive non-targeting miRNA, scrambled mature miRNA sequence (nucleic acid)
chain: TCTAGAACGGGTCCTGATACCAGCGTGAGCGAGCACAAGCTATCAACATGAGGTAGTGAAGCCACAGATGTACCTCATGTTGATAGCTTGTGCCCGCCTACGCCCTTGGCAGCAGGGCCC
GFP silencing [2]: abolished silencing | GFP silencing versus miRNA copy number ([2]; up to four copies separated by 112 nt spacer): no effect on GFP levels

B4: tc1: SEQ ID NO. 30; GFP-targeting miRNA harboring the tetracycline aptamer (nucleic acid)
chain: TCTAGAACGGGTCCTAAAACATACCGTGAGCGAGCACAAGCTGGAGTACAACTATAGTGAAGCCACAGATGTATAGTTGTACTCCAGCTTGTGCCTGCCTACGGAGAGGTGAAGAATACGACCACCTAGGGCCC
modifications: miRNA
notes: 30; GFP-targeting miRNA harboring the tetracycline aptamer
response of GFP levels to tetracycline [2]: tetracycline-dependent increase in GFP levels | GFP silencing [2]: down-regulated GFP

B5: m2: SEQ ID NO. 20; GFP-targeting control miRNA with varied bulge size, no aptamer (nucleic acid)
chain: TCTAGAACGGGAAACACAGTGAGCGAGCACAAGCTGGAGTACAACTATAGTGAAGCCACAGATGTATAGTTGTACTCCAGCTTGTGCCTGCCTACTGCCTCGGGCCC
response of GFP levels to tetracycline [2]: negligible tetracycline dependence

B6: xa1: SEQ ID NO. 31; GFP-targeting miRNA with the binding core of the xanthine aptamer (nucleic acid)
chain: TCTAGAACGGGTCCGTGTATTACCTGAGCGAGCACAAGCTGGAGTACAACTATAGTGAAGCCACAGATGTATAGTTGTACTCCAGCTTGTGCCCGCCTAGGTCGACGGGCCC
modifications: expressed or natural sequence
GFP silencing [2]: completely abolished silencing

B7: xa2: SEQ ID NO. 32; GFP-targeting miRNA with xanthine aptamer binding core and loop, inverted (nucleic acid)
chain: TCTAGAACGGGTCCGAGGTCGACGTGAGCGAGCACAAGCTGGAGTACAACTATAGTGAAGCCACAGATGTATAGTTGTACTCCAGCTTGTGCCCGCCTACGTGTATTACCCAGGGCCC
modifications: expressed or natural sequence
response of GFP levels to hypoxanthine [2]: hypoxanthine-dependent increase in GFP levels | GFP silencing [2]: substantial GFP silencing

B8: m1: SEQ ID NO. 19; GFP-targeting control miRNA with a large bulge in the basal segments, no aptamer (nucleic acid)
chain: TCTAGAACGGGAAGTAATTACAGTGAGCGAGCACAAGCTGGAGTACAACTATAGTGAAGCCACAGATGTATAGTTGTACTCCAGCTTGTGCCTGCCTACTGCCACATAGGGCCC
response of GFP levels to hypoxanthine [2]: no effect

B9: La1: SEQ ID NO. 33; La-targeting miRNA with basal segments similar to miR-30a, no aptamer (nucleic acid)
chain: TCTAGAGTTTGACAGTGAGCGCTGGAAATCAGTGAAGATAAAATAGTGAAGCCACAGATGTATTTTATCTTCACTGATTTCCATTGCCTACTGCCTCGGACTGAATTCATAGGGCCC
modifications: expressed or natural sequence
notes: 33; La-targeting miRNA with basal segments similar to miR-30a, no aptamer
silencing of La transcript [3]: relatively strong silencing | response of DsRed levels to theophylline [4]: not observed | DsRed-Express down-regulation in cis [4]: substantial DsRed-Express down-regulation

B10: La2: SEQ ID NO. 34; La-targeting miRNA with the theophylline aptamer in the basal segments (nucleic acid)
chain: TCTAGAACGGGTCCTGATACCAGCGTGAGCGCTGGAAATCAGTGAAGATAAAATAGTGAAGCCACAGATGTATTTTATCTTCACTGATTTCCATCGCCTACGCCCTTGGCAGCAGGGCCC
modifications: expressed or natural sequence
notes: 34; La-targeting miRNA with the theophylline aptamer in the basal segments
response of La transcript levels to theophylline ([3]; 1.5 mM theophylline for over one week): theophylline-dependent increase in La transcript levels | silencing of La transcript [3]: relatively strong silencing | response of DsRed levels to theophylline [4]: increase in DsRed levels in the presence of theophylline | DsRed-Express down-regulation in cis [4]: substantial DsRed-Express down-regulation
